Assay in all cases: SPR; FcgR bound per captured antibody, normalized to SG1
In test [1] the target is T1, cynomolgus monkey FcγRIIa1 extracellular domain, C-terminal His-tag (cynomolgus monkey).
T1 construct: also called cyno FcγRIIa1; FcgRIIa1
T1 chain: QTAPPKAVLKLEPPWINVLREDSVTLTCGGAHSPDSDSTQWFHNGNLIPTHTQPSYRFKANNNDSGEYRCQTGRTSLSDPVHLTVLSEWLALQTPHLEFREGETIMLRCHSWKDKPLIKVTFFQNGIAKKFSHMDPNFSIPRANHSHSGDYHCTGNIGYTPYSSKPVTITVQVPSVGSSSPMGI
As for the experimental part: (§1) The kinetic analysis of interactions between these antibodies and FcγR was carried out using BIACORE® T200 or BIACORE® 4000 (GE Healthcare). HBS-EP+ (GE Healthcare) was used as the running buffer, and the measurement temperature was set to 25° C. A chip produced by immobilizing Protein A. Protein A/G or mouse anti-human IgG kappa light chain (BD Biosciences) onto a Series S Sensor Chip CM4 or CM5 (GE Healthcare) by the amine-coupling method was used. […] After the measurement, the antibody captured on the chip was washed off by allowing reaction with 10 mM glycine-HCl, pH1.5 and 25 mM NaOH so that the chip was regenerated and used repeatedly. The sensorgrams obtained as measurement results were analyzed by the 1:1 Langmuir binding model using the BIACORE® Evaluation Software to calculate the binding rate constant ka (L/mol/s) and dissociation rate constant kd (l/s), and the dissociation constant KD (mol/L) was calculated from these values. […] Regarding such interactions, KD values were calculated using the following 1:1 binding model described in BIACORE® T100 Software Handbook BR1006-48 Edition AE.
(§2) The value of the amount of FcγR binding was obtained by dividing the amount of FcγR bound by the amount of each antibody captured.

The target in test [2] is T2, cynomolgus monkey FcγRIIa2 extracellular domain, C-terminal His-tag (cynomolgus monkey).
T2 construct: also called cyno FcγRIIa2; FcgRIIa2
T2 chain: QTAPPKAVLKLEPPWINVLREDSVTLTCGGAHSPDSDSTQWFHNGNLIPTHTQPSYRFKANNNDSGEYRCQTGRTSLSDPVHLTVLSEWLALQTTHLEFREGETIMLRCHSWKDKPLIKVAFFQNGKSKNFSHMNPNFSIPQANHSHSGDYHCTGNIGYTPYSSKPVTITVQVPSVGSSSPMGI
As for the experimental part: as §1, §2

Test [3] has as its target T3, cynomolgus monkey FcγRIIa3 extracellular domain, C-terminal His-tag (cynomolgus monkey).
T3 construct: also called cyno FcγRIIa3; FcgRIIa3
T3 chain: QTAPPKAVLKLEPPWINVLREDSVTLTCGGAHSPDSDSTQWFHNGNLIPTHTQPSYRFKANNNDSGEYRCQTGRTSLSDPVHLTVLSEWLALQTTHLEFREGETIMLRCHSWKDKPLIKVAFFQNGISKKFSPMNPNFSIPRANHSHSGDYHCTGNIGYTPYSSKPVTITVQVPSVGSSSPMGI
How it is done:
as §1, §2

For test [4], the target named is T4, cynomolgus monkey FcγRIIb extracellular domain, C-terminal His-tag (cynomolgus monkey).
T4 construct: also called cyno FcγRIIb; cynoFcγRIIb
T4 chain: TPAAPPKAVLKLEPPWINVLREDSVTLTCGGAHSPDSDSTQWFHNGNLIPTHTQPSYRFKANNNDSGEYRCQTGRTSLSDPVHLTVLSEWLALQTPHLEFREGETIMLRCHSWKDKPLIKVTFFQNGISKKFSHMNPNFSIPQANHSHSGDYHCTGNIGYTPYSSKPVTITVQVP
How it is done:
as §1, §2

For test [5], the target named is T5, cynomolgus monkey FcγRIIIaS extracellular domain, C-terminal His-tag (cynomolgus monkey, UniProt Q8SPW2 21-206 at identity 1.00)).
T5 construct: also called cyno FcγRIIIaS; FcgRIIIaS
T5 chain: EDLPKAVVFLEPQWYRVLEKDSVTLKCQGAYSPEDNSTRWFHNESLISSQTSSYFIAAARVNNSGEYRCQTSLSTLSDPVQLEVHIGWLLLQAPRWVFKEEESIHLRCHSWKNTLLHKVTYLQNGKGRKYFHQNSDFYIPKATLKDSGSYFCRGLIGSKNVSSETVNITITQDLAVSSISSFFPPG
As for the experimental part: as §1, §2

B1: M103205H795-SG179/M103202L889-SK1 (antibody, human IgG1, kappa)
heavy: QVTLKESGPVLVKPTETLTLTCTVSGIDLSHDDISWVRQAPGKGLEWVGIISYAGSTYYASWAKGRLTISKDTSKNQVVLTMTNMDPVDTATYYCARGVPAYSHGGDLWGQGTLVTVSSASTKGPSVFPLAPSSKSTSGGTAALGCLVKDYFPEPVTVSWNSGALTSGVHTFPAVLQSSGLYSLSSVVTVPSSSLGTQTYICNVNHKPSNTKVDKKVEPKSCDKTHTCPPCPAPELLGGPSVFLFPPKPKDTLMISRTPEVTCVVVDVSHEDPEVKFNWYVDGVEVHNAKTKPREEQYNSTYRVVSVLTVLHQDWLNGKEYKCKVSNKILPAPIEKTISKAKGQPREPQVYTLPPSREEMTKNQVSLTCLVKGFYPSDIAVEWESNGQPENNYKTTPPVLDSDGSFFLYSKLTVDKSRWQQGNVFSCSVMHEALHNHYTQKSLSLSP
light: DIVMTQSPATLSLSPGERATLSCTSSQSVYHANWLSWFQQKPGQPPKLLIYWASTLAYGVPSRFSGSGSGTDFTLTISSLQPEDAATYYCAGGYGGGRYAFGQGTKVEIKRTVAAPSVFIFPPSDEQLKSGTASVVCLLNNFYPREAKVQWKVDNALQSGNSQESVTEQDSKDSTYSLSSTLTLSKADYEKHKVYACEVTHQGLSSPVTKSFNRGEC
notes: also called A327I
With B1, the “amount of FcgR binding (SG1 = 100)” value in test [1] stood at 19 SG1 = 100; in test [2], 17 SG1 = 100; in test [3], 28 SG1 = 100; in test [4], 19 SG1 = 100; in test [5], 48 SG1 = 100.
